In PMC4964276 one finds Kd and reduction of binding (% against the wild-type peptide) data, which are given here for 2 substances.

Test [1] has as its target PKA RIIα (Homo sapiens) (UniProt P13861). The experiment in a line: SPR. Particulars: cited from earlier work.
Test [2] deals with AKAP18β 30-mer peptide, Val64 to aspartate (human). The experiment in a line: peptide or protein array.
The target in test [3] is AKAP18β 30-mer peptide, Ala63 to aspartate (human). The experiment in a line: peptide or protein array.
Test [4] addresses AKAP18β 30-mer peptide, Val60 to aspartate (human). The experiment in a line: peptide or protein array.
In test [5] the target is AKAP18β 30-mer peptide, Ala67 to aspartate (human). Briefly: peptide or protein array.

Chain of RIIα subunits, recombinant, radioactively labelled (32P) (P13861 whole entry): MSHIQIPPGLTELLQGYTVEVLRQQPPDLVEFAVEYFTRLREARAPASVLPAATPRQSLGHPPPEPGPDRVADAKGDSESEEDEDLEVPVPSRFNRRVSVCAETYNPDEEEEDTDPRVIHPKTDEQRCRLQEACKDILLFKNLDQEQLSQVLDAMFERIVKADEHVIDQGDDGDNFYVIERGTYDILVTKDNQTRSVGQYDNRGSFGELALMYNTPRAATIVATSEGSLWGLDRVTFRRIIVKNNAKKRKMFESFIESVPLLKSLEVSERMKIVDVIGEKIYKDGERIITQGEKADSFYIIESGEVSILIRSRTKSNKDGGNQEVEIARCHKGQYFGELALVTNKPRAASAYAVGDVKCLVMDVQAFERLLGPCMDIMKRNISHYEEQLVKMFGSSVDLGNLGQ
Chain of AKAP18δ PKA-binding domain peptide PKA-binding domain (25 aa) (Q9P0M2 295-319, stated change not applied): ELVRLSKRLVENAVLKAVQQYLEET
Chain of PKA RIIα (Homo sapiens) (P13861 2-404): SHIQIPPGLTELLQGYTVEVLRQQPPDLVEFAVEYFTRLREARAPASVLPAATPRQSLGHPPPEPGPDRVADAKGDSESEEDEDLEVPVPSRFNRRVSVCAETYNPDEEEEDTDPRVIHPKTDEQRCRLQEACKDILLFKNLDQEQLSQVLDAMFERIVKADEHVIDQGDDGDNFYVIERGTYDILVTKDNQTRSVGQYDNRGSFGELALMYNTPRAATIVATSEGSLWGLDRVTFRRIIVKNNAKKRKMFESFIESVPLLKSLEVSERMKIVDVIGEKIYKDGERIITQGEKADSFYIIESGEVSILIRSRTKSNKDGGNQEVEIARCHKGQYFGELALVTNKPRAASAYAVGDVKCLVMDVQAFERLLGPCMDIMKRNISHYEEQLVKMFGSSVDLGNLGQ

A word on the Kd: it is the constant that tells how readily two partners part at equilibrium. Take “AKAP18δ PKA-binding domain peptide PKA-binding domain (25 aa) (from UniProt Q9P0M2)”: the Kd in test [1] was 0.4 nM.
On to “RIIα subunits, recombinant, radioactively labelled (32P) (from UniProt P13861 1-404) (natural protein)”, for which the reduction of binding (% against the wild-type peptide) in test [2], in test [3], in test [4] and in test [5] was greater than 60% each time.
